Measurements published in patent US6506592B1, “Hyperthermophilic alpha-glucosidase gene and its use” (Board of Regents of the University of Nebraska, priority 1998, dated 2003).

B1: recombinant alpha-glucosidase: thermostable alpha-glucosidase of Sulfolobus solfataricus encoded by malA (SEQ ID NO:2), expressed recombinantly in E. coli or transgenic tobacco (protein, listed as Sulfolobus solfataricus)
chain: MQTIKIYENKGVYKVVIGEPFPPIEFPLEQKISSNKSLSELGLTIVQQGNKVIVEKSLDLKEHIIGLGEKAFELDRKRKRYVMYNVDAGAYKKYQDPLYVSIPLFISVKDGVATGYFFNSASKVIFDVGLEEYDKVIVTIPEDSVEFYVIEGPRIEDVLEKYTELTGKPFLPPMWAFGYMISRYSYYPQDKVVELVDIMQKEGFRVAGVFLDIHYMDSYKLFTWHPYRFPEPKKLIDELHKRNVKLITIVDHGIRVDQNYSPFLSGMGKFCEIESGELFVGKMWPGTTVYPDFFREDTREWWAGLISEWLSQGVDGIWLDMNEPTDFSRAIEIRDVLSSLPVQFRDDRLVTTFPDNVVHYLRGKRVKHEKVRNAYPLYEAMATFKGFRTSHRNEIFILSRAGYAGIQRYAFIWTGDNTPSWDDLKLQLQLVLGLSISGVPFVGCDIGGFQGRNFAEIDNSMDLLVKYYALALFFPFYRSHKATDGIDTEPVFLPDYYKEKVKEIVELRYKFLPYIYSLALEASEKGHPVIRPLFYEFQDDDDMYRIEDEYMVGKYLLYAPIVSKEESRLVTLPRGKWYNYWNGEIINGKSVVKSTHELPIYLREGSIIPLEGDELIVYGETSFKRYDNAEITSSSNEIKFSREIYVSKLTITSEKPVSKIIVDDSKEIQVEKTMQNTYVAKINQKIRGKINLE
B2: Beta-glycosidase: S. solfataricus beta-glycosidase (lacS) converting beta-linked disaccharides into glucose, expressed in transgenic tobacco (protein)
chain: MYSFPNSFRFGWSQAGFQSEMGTPGSEDPNTDWYKWVHDPENMAAGLVSGDLPENGPGYWGNYKTFHDNAQKMGLKIARLNVEWSRIFPNPLPRPQNFDESKQDVTEVEINENELKRLDEYANKDALNHYREIFKDLKSRGLYFILNMYHWPLPLWLHDPIRVRRGDFTGPSGWLSTRTVYEFARFSAYIAWKFDDLVDEYSTMNEPNVVGGLGYVGVKSGFPPGYLSFELSRRAMYNIIQAHARAYDGIKSVSKKPVGIIYANSSFQPLTDKDMEAVEMAENDNRWWFFDAIIRGEITRGNEKIVRDDLKGRLDWIGVNYYTRTVVKRTEKGYVSLGGYGHGCERNSVSLAGLPTSDFGWEFFPEGLYDVLTKYWNRYHLYMYVTENGIADDADYQRPYYLVSHVYQVHRAINSGADVRGYLHWSLADNYEWASGFSMRFGLLKVDYNTKRLYWRPSALVYREIATNGAITDEIEHLNSVPPVKPLRH

Experiments:
[1] = alpha-glucosidase activity in tobacco leaf extract (alpha-PNPG hydrolysis); assay type: biochemical
Method: (§1) To obtain tobacco leaf extract for assays, approximately […] of tobacco (five 1.1 cm diameter disk punches) leaves were harvested, rinsed with distilled water, midribs removed and weighed. Leaves were then ground to a powder in liquid nitrogen and ground again with a sterilized pestle. The extracts were then clarified by centrifugation at 14,000 rpm for 10 minutes at room temperature. The resulting supernatant was heat treated for 1 hour at 85° C. and clarified by spinning at 14,000 rpm for 10 minutes at room temperature. The supernatant was collected and assayed for alpha-glucosidase or beta-glycosidase enzyme activity by measuring the hydrolysis of p-nitrophenyl-alpha-glucopyranoside (alpha-PNPG) and p-nitrophenyl-beta-D-glucopyranoside (beta-PNPG), respectively, as previously described (Rolfsmeier, et al., 1998; Haseltine, et al., 1999(a)). Plant tissue extracts for studies on hydrolysis of added defined substrates were prepared using 100 g of tobacco leaves were harvested and grinded to a fine powder in liquid nitrogen. The leaf powder was resuspended in 500 ml of 10 mM tris-Cl pH7.0 to which 10 mM beta-mercaptoethanol has been added. The suspension was then homogenized in a Waring blender. The resulting extract was centrifuged at 5,000 rpm for 30 minutes at 4° C. and the supernatant was further clarified by filtering through three layers of cheesecloth. Plant extracts used for studies on hydrolysis of endogenous polysaccharides as sources of transgenic proteins were prepared using one leaf (medium to large) for each plant which was harvested and ground to a fine powder in liquid nitrogen. The ground leaves were resuspended in 2 volumes of 100 mM sodium phosphate pH 7.0 with 10 mM beta-mercaptoethanol and the tissue was further homogenized in a Waring blender. The resulting extracts were then incubated at 80° C. to activate the recombinant alpha-glucosidase and beta-glycosidase for 48 hours. After incubation, the extracts were clarified by centrifugation by 12,500 rpm for 10 minutes 4° C. Glucose released by glycosyl hydrolase action on endogenous plant carbohydrates was measured using the Glucose Oxidase Assay (Sigma).
Glucosyl hydrolase levels were determined in primary plant transformants using clarified leaf extracts incubated at 80° C. Plants transformed with empty vector lacked detectable thermostable glycosyl hydrolase activity. Activity was measured on fully expanded leaves of plants that had grown in soil for 76 to 164 days. Levels of the beta-glycosidase in young primary transformants was determined in twenty-three independent events. Enzyme levels in ten representative isolates ranged over 12-fold with maximum values of 29 μmoles PNP/min/mg of protein (FIG. 5B).
It has been determined that glycosyl hydrolases retain significant activity in fully mature and preserved leaf tissue. Glycosyl hydrolase specific activities in plant tissues were compared, after freezing or drying, to levels in fresh tissue samples (Table 2). Significant beta-glycosidase activity was retained in leaves harvested and held at −80° C. for 5 days.

[2] = glucose release from endogenous polysaccharide-enriched tobacco extract at 80° C.; assay type: biochemical, Nicotiana tabacum; settings: transgenic protein extract plus polysaccharide-enriched tobacco extract, terminated after 160 hr
Method: (§2) FIGS. 7A and B show the release of glucose by transgenic glycosyl hydrolases from exogenous and endogenous plant carbohydrates. FIG. 7A. Glucose released by the alpha-glucosidase using an exogenous soluble starch as substrate. A 5% (w/v) solution of soluble starch was incubated at 80° C. with no additions (closed circles), with a protein extract from a plant transformed with an empty vector (open circles) and with a protein extract from transformant MI52E containing the alpha-glucosidase (closed squares). FIG. 7B. Glucose released by glycosyl hydrolases using an endogenous polysaccharide-enriched plant extract as substrate. Protein extracts were: beta-glycosidase (closed squares), alpha-glucosidase (closed circles), and empty vector transformed plant (labeled). Glucose levels were determined using the glucose oxidase assay.
To obtain tobacco leaf extract for assays, approximately […] of tobacco (five 1.1 cm diameter disk punches) leaves were harvested, rinsed with distilled water, midribs removed and weighed. Leaves were then ground to a powder in liquid nitrogen and ground again with a sterilized pestle. […] Glucose released by glycosyl hydrolase action on endogenous plant carbohydrates was measured using the Glucose Oxidase Assay (Sigma).
Levels of liberated glucose were determined as a function of incubation time at 80° C. […]

[3] = hydrolysis of p-nitrophenyl-α-D-glucopyranoside by purified recombinant enzyme; assay type: biochemical; settings: 85° C., purified recombinant enzyme from E. coli
Method: The production of the recombinant enzymes of this invention were conducted by over expression in E. coli. Assays for alpha-glucosidase activity were performed with para-nitrophenyl-alpha-D-glucopyranoside or methylumbelliferyl-alpha-D-glucoside. Assays for hydrolysis of substrate and detection of glucose were monitored by means known in the art. Purification of the recombinant enzyme to apparent homogeneity employed heat fractionation of clarified cell sonicates followed by anion-exchange fast protein liquid chromatography and gel filtration fast protein liquid chromatography as described in Rolfsmeier, et al.,1995.
Purification of the recombinant enzyme to apparent homogeneity employed heat fractionation of clarified cell sonicates followed by anion-exchange fast protein liquid chromatography and gel filtration fast protein liquid chromatography as described by Rolfsmeier, et al., 1995. […] Complete denaturation of the recombinant alpha-glucosidase required additional treatment with 6 M guanidine hydrochloride, resulting in exclusive formation of the 80-kDa monomer. Assays for alpha-glucosidase activity with p-nitrophenyl-α-D-glucopyranoside were performed as described by Rolfsmeier, et al., 1995. In enzymatic assays for hydrolysis of maltose and glycogen, release of glucose was monitored with a glucose oxidase assay kit (Sigma) as described by Rolfsmeier, et al., 1995. […]

[4] = glucose release by transgenic plant protein extracts at 80° C.; assay type: biochemical; settings: transgenic plant protein extract, incubation at 80° C.
Method: as §2
Conversion of plant polysaccharide into free sugar is conventionally done by addition of purified or semipurified hydrolytic enzymes. […] Protein extracts of the alpha-glucosidase transgenic plant MI52E, were prepared and combined with soluble starch. Plant leaves were harvested in the late afternoon, ground in liquid nitrogen with a mortar and pestle in 100 mM phosphate buffer at pH 7.0. […] No significant glucose was detected in reactions containing protein extracts from plants transformed with empty vector and added starch or in reactions containing starch alone. […]

[5] = maltose hydrolysis, glucose oxidase assay; assay type: biochemical; settings: FIG. 4A
Description: (§3) Purification of the recombinant enzyme to apparent homogeneity employed heat fractionation of clarified cell sonicates followed by anion-exchange fast protein liquid chromatography and gel filtration fast protein liquid chromatography as described by Rolfsmeier, et al., 1995. […] Complete denaturation of the recombinant alpha-glucosidase required additional treatment with 6 M guanidine hydrochloride, resulting in exclusive formation of the 80-kDa monomer. Assays for alpha-glucosidase activity with p-nitrophenyl-α-D-glucopyranoside were performed as described by Rolfsmeier, et al., 1995. In enzymatic assays for hydrolysis of maltose and glycogen, release of glucose was monitored with a glucose oxidase assay kit (Sigma) as described by Rolfsmeier, et al., 1995.
(Rolfsmeier et al., 1995).

[6] = glycogen hydrolysis, glucose oxidase assay; assay type: biochemical
Description: as §3
Alpha-glucosidases of mammalian origin are generally distinguished from those of higher plants and eubacteria by their affinities for glycogen as a substrate.

[7] = recalcitrance to denaturation in denaturing SDS-PAGE; assay type: physicochemical; settings: boiling in 2% (wt/vol) SDS for 10 minutes
Description: as §3

[8] = conversion of added starch to glucose by concentrated malA tobacco extract at 85° C.; assay type: biochemical; settings: 5% starch, extract pre-treated one hour at 85° C., 16 hours
Method: Precipitation of tobacco leaf proteins with (NH4)2 SO4 achieved a 3-fold concentration of the recombinant alpha-glucosidase with a recovery of 100%. Endogenous plant glycolytic activities were eliminated prior to malA assays by heat inactivation (1 hr, […]). Background due to endogenous glucose was removed by dialysis. […] In an attempt to remove this background, concentrated empty vector control extract was pre-incubated for one hour at 85° C., clarified by microcentrifugation and then incubated for 0 or 14 hour at 85° C. in the presence or absence of 5% starch. Without preincubation, background in the presence of starch was very high, at both 0 and at 14 hours, corresponding to 17.8 to 19.2 micrograms of glucose per 100 microliters of assay. Background in the absence of starch was much lower, but apparently more time-dependent, rising from 0.9 to 1.6 micrograms of glucose per 100 microliters in 14 hours (FIG. 7). When the extract was pre-heated before assay, the background in the absence of starch was unchanged, but the background in the presence of starch was then at the same level as the background in the absence of starch without pre-heating (FIG. 7). […]
For measurements of glycosyl hydrolase activities on glucose polymers. […] Aliquots of 100 ul were removed at four hour intervals and glucose was detected with a glucose oxidase glucose detection kit from Sigma.

[9] = beta-glycosidase activity in tobacco leaf extract (beta-PNPG hydrolysis); assay type: biochemical
Method: as §1, with “Plant extracts used for studies on hydrolysis of endogenous polysaccharides as sources of transgenic proteins were prepared using one leaf (medium to large) for each plant which was harvested and ground to a fine powder in liquid nitrogen. The ground leaves were resuspended in 2 volumes of 100 mM sodium phosphate pH 7.0 with 10 mM beta-mercaptoethanol and the tissue was further homogenized in a Waring blender. The resulting extracts were then incubated at 80° C. to activate the recombinant alpha-glucosidase and beta-glycosidase for 48 hours. After incubation, the extracts were clarified by centrifugation by 12,500 rpm for 10 minutes 4° C.” left out
Glucosyl hydrolase levels were determined in primary plant transformants using clarified leaf extracts incubated at 80° C. […] Activity was measured on fully expanded leaves of plants that had grown in soil for 76 to 164 days. Levels of the beta-glycosidase in young primary transformants was determined in twenty-three independent events. […]
It has been determined that glycosyl hydrolases retain significant activity in fully mature and preserved leaf tissue. […]

[10] = Dried transgenic tobacco leaf tissue
[11] = Fresh transgenic tobacco leaf tissue

| Molecule | Alpha-glucosidase specific activity in plant tissue [1, 10] | Alpha-glucosidase specific activity in plant tissue [1, 11] | Alpha-glucosidase specific activity in plant tissue ([1]; Frozen transgenic tobacco leaf tissue) | activity more stable when dried, as compared to fresh tissues ([1]; dried vs fresh tobacco tissue) | activity more stable when frozen, as compared to fresh tissues ([1]; frozen vs fresh tobacco tissue) | initial lag before levels of glucose began to increase [2] | Vmax for p-nitro-phenyl-α-D-glucopyranoside [3] | Km ([3]; read-out: Km for p-nitro-phenyl-α-D-glucopyranoside) | rate of appearance of glucose [4] | pH optimum for maltose hydrolysis [5] | Km for glycogen ([6]; 85° C.) | Vmax for glycogen ([6]; 85° C.) | pH optimum for glycogen hydrolysis ([6]; FIG. 4B) | enzyme that failed to enter the separating gel, migrating in the stacking gel [7] | net rate of glucose formation (conversion of added starch to glucose) [8] | Beta-glycosidase specific activity in plant tissue [9, 10] | Beta-glycosidase specific activity in plant tissue [9, 11] | Beta-glycosidase specific activity in plant tissue ([9]; Frozen transgenic tobacco leaf tissue (−80° C. for 5 days)) |
| --- | --- | --- | --- | --- | --- | --- | --- | --- | --- | --- | --- | --- | --- | --- | --- | --- | --- | --- |
| B1 | 27 μmoles PNP/hr/mg | 1.6 μmoles PNP/hr/mg | 3.6 μmoles PNP/hr/mg | 17 times | over two | 28 h | 3.08 μmol of p-nitrophenol/min | 2160 µM | 0.11 µg/h | 4.5 | 64.9 mg/mL | 1.0 μmol of glucose/min | 5.5 | 45 % of the total observed protein | 0.42 micrograms per hour |  |  |  |
| B2 |  |  |  |  |  | 28 h |  |  | 0.15 µg/h |  |  |  |  |  |  | 31 μmoles PNP/min/mg | 62 μmoles PNP/min/mg | 67 μmoles PNP/min/mg |
